The record followed here is patent publication US20240336661A1, “PEPTIDES DERIVED FROM RUMINOCOCCUS TORQUES” (University of Copenhagen, priority 2021, published 2024).

One series deals with mouse 3T3-L1 fibroblasts. The series is described as follows: Gene expression in 3T3-L1 fibroblasts (q-PCR). As to conditions: dose-response. In kind it is cell-based. On the procedure: 3T3-L1 cells (a murine fibroblast cell line) were split onto 12-well plates and grown to confluence before inducing differentiation by treatment with 86 nM insulin, 0.1 μM dexamethasone, and 250 μM methyl isobutylxanthine. Two days after induction, cells were switched to an inducing medium in the presence of recombinant RUCILPs, or commercial recombinant irisin (Sigma, #SRP8039-10UG and Phoenix pharmaceuticals, #067-29A), or phosphate buffered saline (PBS) for two days. Subsequently, cells were maintained in 86 nM insulin in the presence of indicated concentrations of recombinant RUCILPs, 21-AABP1, commercial recombinant irisin, or PBS for four days with medium change every other day for 6 days. Cells were then harvested for q-PCR analysis as described in standard protocol for gene expression analysis.
(§1) Total RNA from cells or tissues was extracted according to the instructions provided by manufacturer of RNeasy mini kit (Qiagen) using QIAzol lysis reagent (Qiagen), followed by measurements of RNA purities and concentrations by NanoDrop 2000 spectrophotometer (Thermo Scientific). A total of 1 μg of RNA was used for the reverse transcription to cDNA using the iScript™ Select cDNA Synthesis Kit (Bio-Rad Laboratories). The samples were subjected to real-time PCR using the LC480 system (Roche Diagnostics) after premixing with Precision®PLUS Master Mix (Primer Design). For each indicated gene, samples were run in duplicate in a 384-well plate and ΔΔCt method was used for quantifying the expressions after normalization to the housekeeping Rpl36 or GAPDH gene.
Firstly, we tested the dose-response effects of RUCILPs on gene expression in mouse fibroblasts (3T3-L1), mouse […] (MLO-Y4), and mouse myoblasts (C2C12). To estimate effect on adipocyte browning, we measured expression of Ucp1, Prdm16, Pgc1a, Dio2 and Cox2, and expression of AdipoQ was measured as a marker of white adipocytes. As a marker of bone formation, we measured expression of Sclerostin; and markers of myotube formation included expression of Heyl, Sox3, and Stat3.

For series [1], the system named is subcutaneous white adipose tissue (SWAT) and liver. The series is described as follows: Intraperitoneal RUCILP1 or RUCILP2 for 7 days in mice, gene expression in SWAT and liver. The class given is in vivo, mouse. The following applies: 1 mg/kg i.p. On the procedure:
FIG. 46. Effects of RUCILP1 and RUCILP2 on gene expression in vivo. Recombinant RUCILPs were daily injected into peritoneum of 8-week-old wild type C57BL/6N mice at a concentration of 1 mg/kg for one week. The mRNA levels of indicated genes in subcutaneous white adipose tissue (SWAT) and liver were analyzed by qRT-PCR. n=6 animals per group. * indicates p<0.05 using one-way ANOVA followed by Dunnett post hoc correction. Data are expressed as mean±SEM.
For the RUCILPs intervention study, male mice (n=6 per group, 8 weeks of age) fed with standard chow diet were treated daily with an in intraperitoneal injection of 1 mg/kg recombinant RUCILP1, RUCILP2, or saline, respectively, for a week. All animals were then sacrificed and subcutaneous fat pads and liver were collected. The mRNA levels of indicated genes in subcutaneous fat and liver were analyzed by qRT-PCR as described in standard protocol for gene expression analysis.
as §1

The next series has as its system fat cells. The series is described as follows: Cellular experiments with recombinant RUCILP2 summarised in Example 6 (fat and liver cells). In kind it is cell-based.
Series [2] in a line: Targeted proteomics (PRM) assay for RUCILP2 in human plasma. The following applies: measured from 6 individuals. From the text:
FIG. 25. Representative chromatogram showing the presence of RUCILP2 in fasting human plasma. Parallel reaction monitoring (PRM) elution profile for y-ions for the unique tryptic RUCILP2 peptide (EAAGYNVYVDGVK) found in human plasma samples. Top panel is PRM trace for the fragmental ions (box a) of light peptide found in human plasma sample, bottom panel is PRM trace for the fragmental ions (box b) of 10.0 femtomole of heavy isotope labelled (Lys ^13C6, […]) synthetic peptide (internal standard, IS) spiked into fractionated human plasma samples. Retention times for each peptide are labeled on the x axis, and y axis represents the relative intensity for each fragmental ion peak. One milliliter of human plasma sample was depleted of albumin and immunoglobulin G following deglycosylation. Deglycosylated plasma was resolved by SDS-PAGE and molecular mass regions corresponding to completely deglycosylated RUCILP2 (10-15 kDa) was excised and subsequently digested in-gel overnight before LC-MS/MS detection. Based on comparative analysis on relative intensities of fragmental ions found in processed human plasma and fragmental ions found in plasma spiked with heavy isotope labelled internal standards, we estimate the inter-individual concentrations of RUCILP2 in human plasma vary between 10 and 100 pg/ml. […]

B1: RUCILP2: 87 amino acid irisin-like polypeptide cleaved from the Ruminococcus torques FNDC5-like protein RUMTOR_00181; recombinant, 6-His-tagged from E. coli (protein)
chain: APVDVKVSEITETSAKASWKNAADGKEAAGYNVYVDGVKLNKELLTEASCGLTNLKAETTYFVEVTAVDAAGNESVKSEKVTFKTLK
modifications: 6-His tag; Ruminococcus torques
notes: 87 amino acid irisin-like polypeptide cleaved from the Ruminococcus torques FNDC5-like protein RUMTOR_00181; recombinant, 6-His-tagged from E. coli
Turning to B1, in the series with mouse 3T3-L1 fibroblasts, the Adiponectin expression result is on record as “down-regulating” and the “markers of adipocyte browning (Ucp1, Prdm16, Pgc1a, Dio2, Cox2)” value is “up-regulate”. In addition, in series [1], the “gene markers for white adipocytes AdipoQ and Ppara in SWAT” value was “diminishes expression”; the “genes involved in gluconeogenesis G6pase and Pepck1 in liver” value is on record as “lowered expression”; the “thermogenic markers Ucp1, Prdm16, Dio2 in SWAT” value was “comparable effects”. Moreover, in the series on fat cells, the “leptin expression in fat cells” value is recorded as “enhances”. In addition, the “expression of genes regulating lipogenesis” value with fat cells (adipocytes and liver cells) is recorded as “inhibits expression”. In series [2], the “inter-individual concentration interval of RUCILP2 in human plasma” value was in the range of 10 to 100 µg/mL.

B2: RUCILP1: 88 amino acid FNIII domain polypeptide of RUMTOR_00181 from Ruminococcus torques (protein)
chain: APVDVKVSEVTETSAKVSWKNAADGKEAAGYNVYVDGTKVNEELIAETTYNVSSLKDGTTYSVEVTAVDAAGEESAKSEKVEFTTVKK
modifications: Ruminococcus torques
notes: 88 amino acid FNIII domain polypeptide of RUMTOR_00181 from Ruminococcus torques
B2: in the series with mouse 3T3-L1 fibroblasts, the Adiponectin expression result is recorded as “down-regulating” and the “markers of adipocyte browning (Ucp1, Prdm16, Pgc1a, Dio2, Cox2)” value is “up-regulate”. Further, in series [1], the “gene markers for white adipocytes AdipoQ and Ppara in SWAT” value was “did not find significant reduction”; the “genes involved in gluconeogenesis G6pase and Pepck1 in liver” value is reported as “no effect”; the “thermogenic markers Ucp1, Prdm16, Dio2 in SWAT” value is given as “comparable effects”.
